{"source": "patent US10829756B2", "about": "“Discovery of enzymes from the alpha-keto acid decarboxylase family” (priority 2015, dated 2020)", "experiment_in_all_cases": "Steady-state kinetics of 2-ketoacid decarboxylase (ADH/NADH coupled)", "format_in_all_cases": "biochemical", "conditions_in_all_cases": "other: pH 7.5, 21° C.", "key": {"CC(=O)C(=O)O": {"test_system": "CC(=O)C(=O)O", "protocol": "(§1) For the native KIVD and KIVD_VLV mutant, 2 ml overnight cultures of XL1B cells were transformed with pQE9 containing N-terminal his-tagged KIVD enzymes and grown in Terrific Broth (BP biomedical, Cat#3046-042) with 50 μg/mL of carbenicillin. (Fisher scientific, Cat# BP2648-5) For the GEOs, 2 ml overnight cultures of BLR cells were transformed with pet29b+ plasmid containing N-terminal his-tagged GEOs, and grown in Terrific Broth with 50 μg/mL of kanamycin. (Fisher scientific, Cat# BP906-5) These cultures were diluted 1:1000 in 500 mL of Terrific Broth with 1 mM MgSO4, 1% glucose, and 50ug/mL of corresponding antibiotics, then grown at 37° C. for 24 hours. Cultures were pelleted down at 4700 rpm for 10 mins and resuspended in auto-induction media (LB broth, 1 mM MgSO4, 0.1 mM TPP, 1×NPS, and 1×5052) for induction at 18° C. for 34 hours. At the end of induction, cells were centrifuged (4700 rpm, 4° C., 20 minutes), supernatant was removed, and cells were resuspended in 40 mL lysis buffer (100 mM Hepes pH 7.5, 100 mM NaCl, 10% glycerol, 0.1 mM TPP, 1 mM MgSO4, 10 mM Imidazole, 1 mM TCEP) and 1 mM PMSF) and sonicated for 2 minutes. Lysed cells were centrifuged at 4700 rpm at 4° C. for 60 mins to remove cell debris. Supernatant was loaded on gravity flow column with 700 μl of cobalt slurry (Fisher scientific, CAT# PI-90091) washed with 10 ml of wash buffer (100 mM Hepes pH 7.5, 100 mM NaCl, 10% glycerol, 0.1 mM TPP, 1 mM MgSO4, 10 mM Imidazole, and 1 mM TCEP). Cobalt bead bed was washed with 15 ml of wash buffer 5 times and proteins were eluted with 1000 μl of elution buffer (100 mM Hepes pH 7.5, 100 mM NaCl, 10% glycerol, 0.1 mM TPP, 1 mM MgSO4, 200 mM Imidazole, and 1 mM TCEP). Protein samples were immediately buffer exchanged with spin concentrators (Satorius, CAT# VS0112) into storage buffer (100 mM Hepes pH 7.5, 100 mM NaCl, 10% glycerol, 0.1 mM TPP, 1 mM MgSO4, and 1 mM TCEP) and stored at 4° C. until kinetics characterization. Protein concentrations were determined using a Synergy H1 spectrophotometer (Biotek) by measuring absorbance at 280 nm using their calculated extinction coefficients with ExPASy ProtParam Tool.^33 All other buffers and salts were purchased from Fisher Scientific unless otherwise specified.\n(§2) The kcat and KM values of selective KIVD mutants were measured for the substrates: C3, C5, isoC5, and C8. All substrates were dissolved in MilliQ H2O and pH was adjusted to 7.5 as necessary. Activity was measured at 0.005 mM to 10 mM substrates. The assay was performed in a 96-well half-area plate. Each reaction contains a final concentration of 0.5 mM NADH, 1 mM DTT, 0.1 mM TPP, 1 mM MgSO4, reaction buffer (100 mM Hepes, 100 mM NaCl, 10% glycerol, pH 7.5) and ADH (Sigma Aldrich, A7011, 10 U/ml for C3, C5 and C8 reactions, 500 U/ml for isoC5 reactions). A wide range of ketoacid decarboxylase concentrations, 4.5 nM-15 μM, were used according to the activity of each enzyme toward different substrates in order to perform steady state kinetics measurement over a period of an hour. Absorbance readings were taken every 1-minute at OD340 at 21° C. for 60 minutes using the Synergy H1. Kinetic parameters (kcat and KM) were determined by fitting initial velocity versus substrate concentration data to the Michaelis-Menten equation."}, "CC(C)C(=O)C(=O)O": {"test_system": "CC(C)C(=O)C(=O)O", "protocol": "as §1, §2"}, "CCCC(=O)C(=O)O": {"test_system": "CCCC(=O)C(=O)O", "protocol": "as §1, §2"}, "CCCCCCC(=O)C(=O)O": {"test_system": "CCCCCCC(=O)C(=O)O", "protocol": "as §1, §2"}}}
{"substance": "1OVM (1OVM_P23234), ketoacid decarboxylase, SEQ ID NO: 26 (Enterobacter cloacae)", "values": [{"measurement": "Km", "setting": "CC(=O)C(=O)O", "value": "7.5 ± 0.1", "unit": "mM"}, {"measurement": "kcat", "setting": "CC(=O)C(=O)O", "value": "0.2 ± 0.01", "unit": "s⁻¹"}, {"measurement": "kcat/Km", "setting": "CC(=O)C(=O)O", "value": "32 ± 0.5", "unit": "M⁻¹ s⁻¹"}, {"measurement": "Km", "setting": "CC(C)C(=O)C(=O)O", "value": "6.1 ± 0.6", "unit": "mM"}, {"measurement": "kcat", "setting": "CC(C)C(=O)C(=O)O", "value": "7.8 ± 0.4", "unit": "s⁻¹"}, {"measurement": "kcat/Km", "setting": "CC(C)C(=O)C(=O)O", "value": "1300 ± 130", "unit": "M⁻¹ s⁻¹"}, {"measurement": "Km", "setting": "CCCC(=O)C(=O)O", "value": "0.5 ± 0.1", "unit": "mM"}, {"measurement": "kcat", "setting": "CCCC(=O)C(=O)O", "value": "1 ± 0.1", "unit": "s⁻¹"}, {"measurement": "kcat/Km", "setting": "CCCC(=O)C(=O)O", "value": "2100 ± 420", "unit": "M⁻¹ s⁻¹"}, {"measurement": "Km", "setting": "CCCCCCC(=O)C(=O)O", "value": "0.021 ± 0.001", "unit": "mM"}, {"measurement": "kcat", "setting": "CCCCCCC(=O)C(=O)O", "value": "1.7 ± 0.1", "unit": "s⁻¹"}, {"measurement": "kcat/Km", "setting": "CCCCCCC(=O)C(=O)O", "value": "80000 ± 4300", "unit": "M⁻¹ s⁻¹"}]}
